B1: IL-17A: recombinant interleukin 17A used to induce A2C injury in vitro and in mice (protein, UniProt Q62386 26-158, looked up)
Interleukin-17A: AAIIPQSSACPNTEAKDFLQNVKVNLKVFNSLGAKVSSRRPSDYLNRSTSPWTLHRNEDPDRYPSVIWEAQCRHQRCVNAEGKLDHHMNSVLIQQEILVLKREPESCPFTFRVEKMLVGVGCTCVASIVRQAA

Key:
LECs = conditions: in vitro and in vivo; cited from earlier work
[1] = test system: A2ECs treated with IL-17A; experiment: A2ECs exposed to IL-17A in vitro; format: cell-based, mouse
Procedure: FIGS. 49A-49B show the role of IL-17A in PTS-induced p53, PAI-1 expression, and apoptosis in A2ECs. (A) IL-17A^−/− mice resist PTS-induced p53 expression and apoptosis in A2ECs. Mice were kept in ambient AIR or exposed to 20 weeks of PTS. A2ECs isolated from WT and IL-17A^−/− mice in AIR or exposed to PTS were analyzed for acetylated/total p53, Sirt1 and activated caspase-3 to assess apoptosis by Western blotting. (B) CSP inhibits IL-17A-induced p53 and PAI-1 expression and apoptosis in A2ECs in vitro. A2ECs isolated from WT mice were treated with PBS or IL-17A (100 ng/ml) in the presence or absence of CSP or control peptide, CP for 24 h in culture dishes. A2EC lysates were immunoblotted for p53, PAI-1, Cl./total caspase-3 and β-actin. WT mice exposed to IL-17A (FIG. 48D) and PTS (FIG. 46A) induce p53 acetylation and Cav1 expression, while inhibiting Sirt1 in A2ECs.
FIGS. 58A-58B show a 7-amino acid fragment of CSP, CSP7 Inhibits IL-17A-induced A2EC apoptosis. (A) Fragments of CSP were synthesized as shown. (B) A2ECs were treated with CSP or its fragments, or CP, 2 h after exposure of cells to IL-17A. A2EC lysates were immunoblotted for acetylated/total p53 and active/total caspase-3 24 h after IL-17A exposure. β-actin levels were evaluated to assess equal loading.
Increased p53 and apoptosis in A2ECs of mice exposed to PTS or IL-17A provided evidence that PTS acts by increasing IL-17A. To confirm that increased IL-17A contributes to the induction of p53 and PAI-1 expression, and apoptosis in A2ECs during PTS-induced lung injury, IL-17A-deficient mice were exposed to 20 weeks of PTS and control mice were kept in ambient air. A2ECs were tested for p53^AC, p53 and Sirt1 expression, and apoptosis. The responses were compared with changes in A2ECs isolated from WT mice exposed to 20 weeks of PTS or AIR. There was marked induction of p53^AC and p53 levels, and apoptosis with parallel suppression of Sirt1 expression in WT mice exposed to 20 weeks of PTS. […] To confirm mitigation of PTS induced lung injury by CSP or CSP7 involves suppression of IL-17A-induced p53, PAI-1 and apoptosis, A2ECs isolated from WT mice were next treated with IL-17A (100 ng/ml) with or without CSP, CSP7 or CP. Control cells were treated with vehicle (PBS) alone. The A2EC lysates were tested for p53 and p53-mediated downstream induction of PAI-1, and apoptosis. […] Further, induction of miR-34a increased p53 and apoptosis in A2ECs without exposure to tobacco smoke, while inhibition of miR-34a using miR-34a antisense (miR-34a-AS) reduced cigarette smoke induced p53 expression and apoptosis. Results of both in vitro and in vivo experiments support an intricate link between miR-34a, p53^AC, p53 and p53-mediated induction of PAI-1 expression, and A2EC apoptosis during PTS lung injury.

[2] = test system: ATII cells and BALF of IL-17A treated mice; experiment: IL-17A-induced lung injury in mice; format: in vivo, mouse; conditions: WT mice exposed to recombinant IL-17A, 24 h
Procedure: IL-17A is induced in passive tobacco smoke (PTS) exposed lung injury. […] Further, IL-17A induced ^p15Sp53 was inhibited following treatment of mice CSP7 when compared with those treated with saline and control peptide. To further test whether IL-17A induced ^p15Sp53 alters PAI-1 expression and ATII apoptosis, ATII cells of IL-17A treated mice for PAI-1 and apoptotic markers were analyzed. IL-17A induced the expression of PAI-1 and cl.Cas-3, and inhibited Sirt-1 expression in ATII cells. […] In addition, CSP7 treatment found to inhibit serine phosphorylation of p53 by neutralizing elevated IL-17A due to PTS exposure.
To test the importance of miR-34a mediated deacetylation of p53 IL-17A or PTS induced lung injury, miR34a conditional knockout mice were treated with tamoxifen. miR34a conditional knockout mice treated with IL-17A (3 μg/mice) was administered with CSP7 and CP a day later. ATII cells isolated from these mice were screened for PAI-1, Sirt-1 and apoptotic markers. […] Further, CSP7 treatment had little effect in miR-34a^cKo mice since these mice resist IL-17A or PTS injury.

BAL cells = experiment: BAL cell counts in mice treated with IL-17A or Pre-miR-34a; format: in vivo, mouse

Molecule	BLM-induced apoptosis of LECs and subsequent pulmonary fibrosis (LECs)	PAI-1 expression or apoptosis ([1]; A2ECs lacking p53 expression)	p53 and PAI-1 expression and apoptosis ([1]; mouse and human A2ECs, IL-17A alone)	total and acetylated p53, apoptosis and Cav1 expression in A2ECs [2]	percentage of PMN in total BAL cells (BAL cells) [%]	total BAL cells (BAL cells)
NYHYLESSMTALYTLGH (listed as Homo sapiens) [PP-2, 17 residue peptide]	protected LECs from BLM-induced apoptosis in vitro and in vivo					
B1		failed to induce PAI-1 expression or apoptosis	induced expression of both p53 and PAI-1, and also apoptosis	marked increase in total and acetylated p53, apoptosis and induced Cav1 expression	11.27	two-fold increase
